Patent US20220348651A1, “ENTPD2 ANTIBODIES, COMBINATION THERAPIES, AND METHODS OF USING THE ANTIBODIES AND COMBINATION THERAPIES” (Novartis AG, priority 2019, published 2022)

Tests used:
[1] = test system: B16LM3 tumor model; assay: Syngeneic B16LM3 tumor model, combination with anti-PD-1 Ab; format: in vivo, C57BL/6 mice; settings: mAb13 15 mg/kg in combination with anti-PD-1 Ab 10 mg/kg i.p., days 1, 5, 8, 12, 15; relative to No Treatment, Isotype Control or anti-PD-1 Ab
Experimental: B16LM3 model was established in female C57BL/6 mice by subcutaneous injection of 0.5×10^6 cells into the right flank of each mouse. The day after implant mice were randomized into treatment groups (n=10 per group). Mice received treatments of either anti-mouse ENTPD2 mAb13 or a non-specific mIgG2a isotype control (clone MOPC-173, BioLegend, San Diego, Calif.) at a final dose 15 mg/kg on Day 1, 5, 8, 12, 15.
Anti-PD-1 Ab (clone RMP1-14 Bio X Cell, West Lebanon, N.H.) or non-specific rIgG2a isotype control (clone RTK2758, BioLegend, San Diego, Calif.) were delivered i.p. at a final dose of 10 mg/kg on days 1, 5, 8, 12, 15. All doses were adjusted to individual mouse body weights.

[2] = biological target: cynomologus (cyno) ENTPD2; assay: Biacore (SPR) affinity to cyno ENTPD2 ECD; format: binding, cynomolgus monkey; settings: 25° C.
Chain of cynomologus (cyno) ENTPD2 (as listed by the source): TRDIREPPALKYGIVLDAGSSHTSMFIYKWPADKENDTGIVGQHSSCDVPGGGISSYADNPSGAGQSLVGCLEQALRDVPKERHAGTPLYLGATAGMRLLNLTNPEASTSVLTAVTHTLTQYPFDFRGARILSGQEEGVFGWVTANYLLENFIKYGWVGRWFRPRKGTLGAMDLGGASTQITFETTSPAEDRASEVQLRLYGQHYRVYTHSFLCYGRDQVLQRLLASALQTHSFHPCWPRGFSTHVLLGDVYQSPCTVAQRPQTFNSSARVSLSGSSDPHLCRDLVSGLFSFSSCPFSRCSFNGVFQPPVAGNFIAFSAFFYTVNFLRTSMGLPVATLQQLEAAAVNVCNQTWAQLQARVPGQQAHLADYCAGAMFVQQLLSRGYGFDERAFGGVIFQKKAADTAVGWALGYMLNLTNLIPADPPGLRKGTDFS
Experimental: Biacore Screening: Affinity was measured by determining the kinetic rate constants using surface plasmon resonance (SPR) on a Biacore T200 or T100 with the T200 sensitivity upgrade instrument (Biacore, GE Healthcare). Antibodies were captured on CM5 sensor chips (Biacore, GE Healthcare) prepared with a mouse anti-human IgG Fc antibody (ThermoFisher catalogue #05-4200) amine coupled to the surface. […] ENTPD2 analytes were allowed to associate for 180 s and dissociate for up to 1800 s depending on the off-rate of the antibody at a flow rate of 30 μL/min. The running buffer was PBS pH 7.2 (prepared from a Corning 10X stock, cat#46-013-CM)+0.05% Tween 20. Regeneration was accomplished with 30 s injections of 3 or 4 M MgCl2 to remove all the captured antibody and remaining complex from the surface, after which fresh antibody was captured. The raw data were analyzed using Biacore T200 Evaluation Software version 1.0 and fit to a 1:1 binding model, with all parameters set to fit globally except for RI, which was set to fit locally.

[3] = test system: NIH/3T3 cells; assay: Cross reactivity: FACS binding to NIH/3T3 control cells; settings: 50 nM antibody
Experimental: FACS screening: Specific binding of candidate antibodies to endogenously expressed ENTPD2 was assessed by flow cytometry. Cells were rinsed thoroughly with 1×PBS and treated with Accutase (Millipore #SCR005) to lift from growth plates and resuspended at approximately 1×10^5 cells/90 μL in 1× FACS buffer (2% FBS+0.1% NaN3 in PBS). In a 96-well U-bottom plate, 10 μL of 10× antibody solution in FACS buffer was pre-seeded and 90 μL of cell suspension was added. Cell were incubated for 30 minutes at 4° C., washed 1× with cold PBS and resuspended in 100 μL of 1:500 secondary antibody 1× FACS buffer (Allophycocyanin conjugated F(ab′)2 goat anti-human IgG, Fcγ specific; Jackson Immunoresearch, Cat#109-136-098). After additional incubation for 15 min at 4° C., cells were washed twice with PBS and resuspended in 100 μL of 1×FACS buffer with 4 μg/mL propidium iodide (Life Technologies, Cat#P3566). Geometric mean fluorescence intensity was calculated on live single cells using FlowJo software.
Cross reactivity Human ENTPD1 (NP_001767) expressing NIH/3T3 cells were generated using a retroviral transduction approach. 72 hrs post transduction, engineered cells were stained with the anti-Human CD39/ENTPD1 APC-conjugated Antibody (R&D systems, Minneapolis, Minn.) and live cells that expressed human ENTPD1 were separated from the rest of the population via fluorescence activated cell sorting. […]

B1: mAb13: anti-mouse ENTPD2 antibody; HC SEQ ID NO: 193, LC SEQ ID NO: 204 (antibody)
heavy: QVQLVQSGAELKQPGQSVKISCKASGYTFTHYGMNWVKQAPGQGLKWMGWINTDTGNPTYADDFKGRFVFSLDTSVSTAYLQISNLKNEDTATYYCVRYGTLYSGYGFFFDSWGQGTLVTVSSAKTTAPSVYPLAPVCGDTTGSSVTLGCLVKGYFPEPVTLTWNSGSLSSGVHTFPAVLQSDLYTLSSSVTVTSSTWPSQSITCNVAHPASSTKVDKKIEPRGPTIKPCPPCKCPAPNLLGGPSVFIFPPKIKDVLMISLSPIVTCVVVDVSEDDPDVQISWFVNNVEVHTAQTQTHREDYNSTLRVVSALPIQHQDWMSGKEFKCKVNNKDLPAPIERTISKPKGSVRAPQVYVLPPPEEEMTKKQVTLTCMVTDFMPEDIYVEWTNNGKTELNYKNTEPVLDSDGSYFMYSKLRVEKKNWVERNSYSCSVVHEGLHNHHTTKSFSRTPGK
light: DIMMTQSPSSLSVSAGEKATITCKSSQSLFNSNTNKNYLNWYLQKPGQSPKLLFYYASTRHTGVPDRFIGSGSGTDFTLTITSVQDEDLADYYCQQWYSYPWTFGPGTKLEIKRADAAPTVSIFPPSSEQLTSGGASVVCFLNNFYPKDINVKWKIDGSERQNGVLNSWTDQDSKDSTYSMSSTLTLTKDEYERHNSYTCEATHKTSTSPIVKSFNRNEC
[1]
  mouse survival: significantly extended mouse survival

B2: mAb7: humanized anti-human ENTPD2 antibody from mAb17; VH SEQ ID NO: 25, VL SEQ ID NO: 78 (antibody, V domains shown)
VH: QVQLVQSGAEVVKPGASVKISCKASGYTFTDYNMDWVKQAPGQRLEWIGDINPKYDISTYNQQFKGKATITVDKSASTAYMELSSLRSEDTAVYYCARRGFFLYYGINYYYFDVWGQGTLVTVSS
VL: EIVLTQSPATLSASPGEEITLSCSASSSVSYIHWYQQKPGQAPRLLIYSTSNLASGIPARFSGSGSGTFYTLTISSVEPEDAAVYYCHQWSSYPWTFGGGTKLEIK
[2]
  Kd: 1.1 nM
  ka: 1.2e+06 M⁻¹ s⁻¹
  kd: 0.0012 s⁻¹
[3]
  Apparent FACS binding at 50 nM: No binding
